Experimental data taken from patent US20200199241A1 (Chugai, published 2020).

B1: IgG1-F767 (antibody)
heavy: QVQLQESGPGLVKPSETLSLTCAVSGHSISHDHAWSWVRQPPGEGLEWIGFISYSGITNYNPSLQGRVTISRDNSKNTLYLQMNSLRAEDTAVYYCARSLARTTAMDYWGEGTLVTVSSASTKGPSVFPLAPSSKSTSGGTAALGCLVKDYFPEPVTVSWNSGALTSGVHTFPAVLQSSGLYSLSSVVTVPSSSLGTQTYICNVNHKPSNTKVDKKVEPKSCDKTHTCPPCPAPELLGGPSVFLFPPKPKDTLMISRTPEVTCVVVDVSHEDPEVKFNWYVDGVEVHNAKTKPREEQYNSTYRVVSVLQVEHADWLNGKEYKCKVSNKALPAPIEKTISKAKGQPREPQVYTLPPSRDELTKNQVSLTCLVKGFYPSDIAVEWESNGQPENNYKTTPPVLDSDGSFFLYSKLTVDKSRWQQGNVFSCSVMHEALHYHYTQKSLSLSP
light: not shown
notes: EU numbering; copies: 2 + 2
B2: IgG1-F771 (antibody)
heavy: QVQLQESGPGLVKPSETLSLTCAVSGHSISHDHAWSWVRQPPGEGLEWIGFISYSGITNYNPSLQGRVTISRDNSKNTLYLQMNSLRAEDTAVYYCARSLARTTAMDYWGEGTLVTVSSASTKGPSVFPLAPSSKSTSGGTAALGCLVKDYFPEPVTVSWNSGALTSGVHTFPAVLQSSGLYSLSSVVTVPSSSLGTQTYICNVNHKPSNTKVDKKVEPKSCDKTHTCPPCPAPELLGGPSVFLFPPKPKDTLYISRTPEVTCVVVDVSHEDPAVKFNWYVDGVEVHNAKTKPREEQYNSTYRVVSVLTVLHQDWLNGKEYKCKVSNKALPAPIEKTISKAKGQPREPQVYTLPPSRDELTKNQVSLTCLVKGFYPSDIAVEWESNGQPENNYKTTPPVLDSDGSFFLYSKLTVDKSRWQQGNVFSCSVMHEALHYHYTQKSLSLSP
light: not shown
notes: EU numbering; copies: 2 + 2
B3: IgG1-F768 (antibody)
heavy: QVQLQESGPGLVKPSETLSLTCAVSGHSISHDHAWSWVRQPPGEGLEWIGFISYSGITNYNPSLQGRVTISRDNSKNTLYLQMNSLRAEDTAVYYCARSLARTTAMDYWGEGTLVTVSSASTKGPSVFPLAPSSKSTSGGTAALGCLVKDYFPEPVTVSWNSGALTSGVHTFPAVLQSSGLYSLSSVVTVPSSSLGTQTYICNVNHKPSNTKVDKKVEPKSCDKTHTCPPCPAPELLGGPSVFLFPPKPKDTLMISRTPEVTCVVVDVSHEDPEVKFNWYVDGVEVHNAKTKPREEQYNSTYRVVSVLAVEHHDWLNGKEYKCKVSNKALPAPIEKTISKAKGQPREPQVYTLPPSRDELTKNQVSLTCLVKGFYPSDIAVEWESNGQPENNYKTTPPVLDSDGSFFLYSKLTVDKSRWQQGNVFSCSVMHEALHYHYTQKSLSLSP
light: not shown
notes: EU numbering; copies: 2 + 2
B4: IgG1-F770 (antibody)
heavy: QVQLQESGPGLVKPSETLSLTCAVSGHSISHDHAWSWVRQPPGEGLEWIGFISYSGITNYNPSLQGRVTISRDNSKNTLYLQMNSLRAEDTAVYYCARSLARTTAMDYWGEGTLVTVSSASTKGPSVFPLAPSSKSTSGGTAALGCLVKDYFPEPVTVSWNSGALTSGVHTFPAVLQSSGLYSLSSVVTVPSSSLGTQTYICNVNHKPSNTKVDKKVEPKSCDKTHTCPPCPAPELLGGPSVFLFPPKPKDTLYISRAPEVTCVVVDVSHEDPEVKFNWYVDGVEVHNAKTKPREEQYNSTYRVVSVLTVLHQDWLNGKEYKCKVSNKALPAPIEKTISKAKGQPREPQVYTLPPSRDELTKNQVSLTCLVKGFYPSDIAVEWESNGQPENNYKTTPPVLDSDGSFFLYSKLTVDKSRWQQGNVFSCSVMHEALHYHYTQKSLSLSP
light: not shown
notes: EU numbering; copies: 2 + 2
B5: IgG1-F775 (antibody)
heavy: QVQLQESGPGLVKPSETLSLTCAVSGHSISHDHAWSWVRQPPGEGLEWIGFISYSGITNYNPSLQGRVTISRDNSKNTLYLQMNSLRAEDTAVYYCARSLARTTAMDYWGEGTLVTVSSASTKGPSVFPLAPSSKSTSGGTAALGCLVKDYFPEPVTVSWNSGALTSGVHTFPAVLQSSGLYSLSSVVTVPSSSLGTQTYICNVNHKPSNTKVDKKVEPKSCDKTHTCPPCPAPELLGGPSVFLFPPKPKDTLYISRTPEVTCVVVDVSHEDPEVKFNWYVDGVEVHNAKTKPREEQYNSTYRVVSVLTVLHQDWLNGKEYKCKVSNKALPAPIEKTISAAKGQPREPQVYTLPPSRDELTKNQVSLTCLVKGFYPSDIAVEWESNGQPENNYKTTPPVLDSDGSFFLYSKLTVDKSRWQQGNVFSCSVMHEALHYHYTQKSLSLSP
light: not shown
notes: EU numbering; copies: 2 + 2
B6: IgG1-F773 (antibody)
heavy: QVQLQESGPGLVKPSETLSLTCAVSGHSISHDHAWSWVRQPPGEGLEWIGFISYSGITNYNPSLQGRVTISRDNSKNTLYLQMNSLRAEDTAVYYCARSLARTTAMDYWGEGTLVTVSSASTKGPSVFPLAPSSKSTSGGTAALGCLVKDYFPEPVTVSWNSGALTSGVHTFPAVLQSSGLYSLSSVVTVPSSSLGTQTYICNVNHKPSNTKVDKKVEPKSCDKTHTCPPCPAPELLGGPSVFLFPPKPKDTLYISRTPEVTCVVVDVSHEDPEVKFNWYVDGAEVHNAKTKPREEQYNSTYRVVSVLTVLHQDWLNGKEYKCKVSNKALPAPIEKTISKAKGQPREPQVYTLPPSRDELTKNQVSLTCLVKGFYPSDIAVEWESNGQPENNYKTTPPVLDSDGSFFLYSKLTVDKSRWQQGNVFSCSVMHEALHYHYTQKSLSLSP
light: not shown
notes: EU numbering; copies: 2 + 2
B7: IgG1-F774 (antibody)
heavy: QVQLQESGPGLVKPSETLSLTCAVSGHSISHDHAWSWVRQPPGEGLEWIGFISYSGITNYNPSLQGRVTISRDNSKNTLYLQMNSLRAEDTAVYYCARSLARTTAMDYWGEGTLVTVSSASTKGPSVFPLAPSSKSTSGGTAALGCLVKDYFPEPVTVSWNSGALTSGVHTFPAVLQSSGLYSLSSVVTVPSSSLGTQTYICNVNHKPSNTKVDKKVEPKSCDKTHTCPPCPAPELLGGPSVFLFPPKPKDTLYISRTPEVTCVVVDVSHEDPEVKFNWYVDGVEVHAAKTKPREEQYNSTYRVVSVLTVLHQDWLNGKEYKCKVSNKALPAPIEKTISKAKGQPREPQVYTLPPSRDELTKNQVSLTCLVKGFYPSDIAVEWESNGQPENNYKTTPPVLDSDGSFFLYSKLTVDKSRWQQGNVFSCSVMHEALHYHYTQKSLSLSP
light: not shown
notes: EU numbering; copies: 2 + 2
B8: IgG1-F769 (antibody)
heavy: QVQLQESGPGLVKPSETLSLTCAVSGHSISHDHAWSWVRQPPGEGLEWIGFISYSGITNYNPSLQGRVTISRDNSKNTLYLQMNSLRAEDTAVYYCARSLARTTAMDYWGEGTLVTVSSASTKGPSVFPLAPSSKSTSGGTAALGCLVKDYFPEPVTVSWNSGALTSGVHTFPAVLQSSGLYSLSSVVTVPSSSLGTQTYICNVNHKPSNTKVDKKVEPKSCDKTHTCPPCPAPELLGGPSVFLFPPKPKDTLMISRTPEVTCVVVDVSHEDPEVKFNWYVDGVEVHNAKTKPREEQYNSTYRVVSVLQVEHHDWLNGKEYKCKVSNKALPAPIEKTISKAKGQPREPQVYTLPPSRDELTKNQVSLTCLVKGFYPSDIAVEWESNGQPENNYKTTPPVLDSDGSFFLYSKLTVDKSRWQQGNVFSCSVMHEALHYHYTQKSLSLSP
light: not shown
notes: EU numbering; copies: 2 + 2
B9: IgG1-F772 (antibody)
heavy: QVQLQESGPGLVKPSETLSLTCAVSGHSISHDHAWSWVRQPPGEGLEWIGFISYSGITNYNPSLQGRVTISRDNSKNTLYLQMNSLRAEDTAVYYCARSLARTTAMDYWGEGTLVTVSSASTKGPSVFPLAPSSKSTSGGTAALGCLVKDYFPEPVTVSWNSGALTSGVHTFPAVLQSSGLYSLSSVVTVPSSSLGTQTYICNVNHKPSNTKVDKKVEPKSCDKTHTCPPCPAPELLGGPSVFLFPPKPKDTLYISRTPEVTCVVVDVSHEDPEVAFNWYVDGVEVHNAKTKPREEQYNSTYRVVSVLTVLHQDWLNGKEYKCKVSNKALPAPIEKTISKAKGQPREPQVYTLPPSRDELTKNQVSLTCLVKGFYPSDIAVEWESNGQPENNYKTTPPVLDSDGSFFLYSKLTVDKSRWQQGNVFSCSVMHEALHYHYTQKSLSLSP
light: not shown
notes: EU numbering; copies: 2 + 2

These binders were tested against T1, soluble human FcRn complexed with β2-microglobulin (human, UniProt P61769 21-119, limits assumed) (assay: Biacore SPR, pH 7.0;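 further: test antibodies captured on a Protein L chip with human FcRn flowed over as analyte, KD obtained as the ratio of dissociation to association rate constants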).
T1 construct: also called hFcRn
T1 sequence (chain, as listed by the source limits assumed, chain 1 of 2): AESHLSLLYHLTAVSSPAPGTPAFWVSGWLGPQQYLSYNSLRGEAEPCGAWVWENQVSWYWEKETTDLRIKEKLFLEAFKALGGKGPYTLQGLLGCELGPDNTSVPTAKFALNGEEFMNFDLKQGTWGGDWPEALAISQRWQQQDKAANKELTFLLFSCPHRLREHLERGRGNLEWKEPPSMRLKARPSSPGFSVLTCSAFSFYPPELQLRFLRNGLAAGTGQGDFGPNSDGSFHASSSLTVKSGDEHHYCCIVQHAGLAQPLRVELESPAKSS
T1 sequence (P61769 21-119 limits assumed, chain 2 of 2): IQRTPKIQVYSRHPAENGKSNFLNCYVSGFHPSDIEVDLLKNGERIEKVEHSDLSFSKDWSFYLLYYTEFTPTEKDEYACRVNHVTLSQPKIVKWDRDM

**Q.** How did the Kd turn out when B1 was run?
**A.** 430 nM

**Q.** With B2 as the binder, how does the Kd read?
**A.** 400 nM

**Q.** B3 was tested. Which Kd did it give?
**A.** 640 nM

**Q.** With B4 as the binder, how does the Kd read?
**A.** 500 nM

**Q.** B5 was tested. Which Kd did it give?
**A.** 620 nM

**Q.** For B6, which Kd is on record?
**A.** 390 nM

**Q.** B7 was tested. Which Kd did it give?
**A.** 400 nM

**Q.** How did the Kd turn out when B8 was run?
**A.** 460 nM

**Q.** With B9 as the binder, how does the Kd read?
**A.** 380 nM
